Data: US20180118786A1 (ECOLE POLYTECHNIQUE FEDERALE DE LAUSANNE EPFL, published 2018)
Starred links: 1 amine or outer side, 2 acyl side, 3 side chain; linkers in the order of their positions; H or OH if unused. Positions of bridges follow the written chain, without caps; N, C: chain ends. No end group written: not given here. TATA = O=C(CC[*:1])N1CN(C(=O)CC[*:2])CN(C(=O)CC[*:3])C1

B1: peptide 7 (peptide 2, Phe3 to valine) (peptide)
peptide: RCVRLPCRQLRCRW-NH2
modifications: linker 2-7-12 via TATA; N-terminus assumed
SMILES: CC(C)C[C@@H]1NC(=O)[C@H](CCC(N)=O)NC(=O)[C@H](CCCNC(=N)N)NC(=O)[C@@H]2CSCCC(=O)N3CN(CN(C3)C(=O)CCSC[C@H](NC(=O)[C@@H](N)CCCNC(=N)N)C(=O)N[C@@H](C(C)C)C(=O)N[C@@H](CCCNC(=N)N)C(=O)N[C@@H](CC(C)C)C(=O)N3CCC[C@H]3C(=O)N2)C(=O)CCSC[C@@H](C(=O)N[C@@H](CCCNC(=N)N)C(=O)N[C@@H](Cc2c[nH]c3ccccc23)C(N)=O)NC(=O)[C@H](CCCNC(=N)N)NC1=O
notes: Number tied to residue by the order of the list
B2: peptide 12 (peptide 2, Leu5 to isoleucine) (peptide)
peptide: RCFRIPCRQLRCRW-NH2
modifications: linker 2-7-12 via TATA; N-terminus assumed
SMILES: CC[C@H](C)[C@@H]1NC(=O)[C@H](CCCNC(=N)N)NC(=O)[C@H](Cc2ccccc2)NC(=O)[C@@H](NC(=O)[C@@H](N)CCCNC(=N)N)CSCCC(=O)N2CN3CN(C2)C(=O)CCSC[C@H](NC(=O)[C@@H]2CCCN2C1=O)C(=O)N[C@@H](CCCNC(=N)N)C(=O)N[C@@H](CCC(N)=O)C(=O)N[C@@H](CC(C)C)C(=O)N[C@@H](CCCNC(=N)N)C(=O)N[C@H](C(=O)N[C@@H](CCCNC(=N)N)C(=O)N[C@@H](Cc1c[nH]c2ccccc12)C(N)=O)CSCCC3=O
B3: peptide 11 (peptide 2, Leu5 to valine) (peptide)
peptide: RCFRVPCRQLRCRW-NH2
modifications: linker 2-7-12 via TATA; N-terminus assumed
SMILES: CC(C)C[C@@H]1NC(=O)[C@H](CCC(N)=O)NC(=O)[C@H](CCCNC(=N)N)NC(=O)[C@@H]2CSCCC(=O)N3CN(CN(C3)C(=O)CCSC[C@H](NC(=O)[C@@H](N)CCCNC(=N)N)C(=O)N[C@@H](Cc3ccccc3)C(=O)N[C@@H](CCCNC(=N)N)C(=O)N[C@@H](C(C)C)C(=O)N3CCC[C@H]3C(=O)N2)C(=O)CCSC[C@@H](C(=O)N[C@@H](CCCNC(=N)N)C(=O)N[C@@H](Cc2c[nH]c3ccccc23)C(N)=O)NC(=O)[C@H](CCCNC(=N)N)NC1=O
B4: peptide 21 (peptide 2, Gln9 to aspartate) (peptide)
peptide: RCFRLPCRDLRCRW-NH2
modifications: linker 2-7-12 via TATA; N-terminus assumed
SMILES: CC(C)C[C@@H]1NC(=O)[C@H](CC(=O)O)NC(=O)[C@H](CCCNC(=N)N)NC(=O)[C@@H]2CSCCC(=O)N3CN(CN(C3)C(=O)CCSC[C@H](NC(=O)[C@@H](N)CCCNC(=N)N)C(=O)N[C@@H](Cc3ccccc3)C(=O)N[C@@H](CCCNC(=N)N)C(=O)N[C@@H](CC(C)C)C(=O)N3CCC[C@H]3C(=O)N2)C(=O)CCSC[C@@H](C(=O)N[C@@H](CCCNC(=N)N)C(=O)N[C@@H](Cc2c[nH]c3ccccc23)C(N)=O)NC(=O)[C@H](CCCNC(=N)N)NC1=O
B5: peptide 8 (peptide 2, Phe3 to isoleucine) (peptide)
peptide: RCIRLPCRQLRCRW-NH2
modifications: linker 2-7-12 via TATA; N-terminus assumed
SMILES: CC[C@H](C)[C@@H]1NC(=O)[C@@H](NC(=O)[C@@H](N)CCCNC(=N)N)CSCCC(=O)N2CN3CN(C2)C(=O)CCSC[C@H](NC(=O)[C@@H]2CCCN2C(=O)[C@H](CC(C)C)NC(=O)[C@H](CCCNC(=N)N)NC1=O)C(=O)N[C@@H](CCCNC(=N)N)C(=O)N[C@@H](CCC(N)=O)C(=O)N[C@@H](CC(C)C)C(=O)N[C@@H](CCCNC(=N)N)C(=O)N[C@H](C(=O)N[C@@H](CCCNC(=N)N)C(=O)N[C@@H](Cc1c[nH]c2ccccc12)C(N)=O)CSCCC3=O
notes: as for B1
B6: peptide 64 (FXII618, Arg1 to isoleucine) (peptide)
peptide: ICFRLPCRQLRCR-NH2
modifications: linker 2-7-12 via TATA; N-terminus assumed
SMILES: CC[C@H](C)[C@H](N)C(=O)N[C@H]1CSCCC(=O)N2CN3CN(C2)C(=O)CCSC[C@H](NC(=O)[C@@H]2CCCN2C(=O)[C@H](CC(C)C)NC(=O)[C@H](CCCNC(=N)N)NC(=O)[C@H](Cc2ccccc2)NC1=O)C(=O)N[C@@H](CCCNC(=N)N)C(=O)N[C@@H](CCC(N)=O)C(=O)N[C@@H](CC(C)C)C(=O)N[C@@H](CCCNC(=N)N)C(=O)N[C@H](C(=O)N[C@@H](CCCNC(=N)N)C(N)=O)CSCCC3=O
notes: as for B1
B7: peptide 66 (FXII618, Arg1 to alanine) (peptide)
peptide: ACFRLPCRQLRCR-NH2
modifications: linker 2-7-12 via TATA; N-terminus assumed
SMILES: CC(C)C[C@@H]1NC(=O)[C@H](CCC(N)=O)NC(=O)[C@H](CCCNC(=N)N)NC(=O)[C@@H]2CSCCC(=O)N3CN(CN(C3)C(=O)CCSC[C@@H](C(=O)N[C@@H](CCCNC(=N)N)C(N)=O)NC(=O)[C@H](CCCNC(=N)N)NC1=O)C(=O)CCSC[C@H](NC(=O)[C@H](C)N)C(=O)N[C@@H](Cc1ccccc1)C(=O)N[C@@H](CCCNC(=N)N)C(=O)N[C@@H](CC(C)C)C(=O)N1CCC[C@H]1C(=O)N2
notes: as for B1
B8: peptide 85 (FXII618, Gln9 to glycine) (peptide)
peptide: RCFRLPCRGLRCR-NH2
modifications: linker 2-7-12 via TATA; N-terminus assumed
SMILES: CC(C)C[C@@H]1NC(=O)CNC(=O)[C@H](CCCNC(=N)N)NC(=O)[C@@H]2CSCCC(=O)N3CN(CN(C3)C(=O)CCSC[C@H](NC(=O)[C@@H](N)CCCNC(=N)N)C(=O)N[C@@H](Cc3ccccc3)C(=O)N[C@@H](CCCNC(=N)N)C(=O)N[C@@H](CC(C)C)C(=O)N3CCC[C@H]3C(=O)N2)C(=O)CCSC[C@@H](C(=O)N[C@@H](CCCNC(=N)N)C(N)=O)NC(=O)[C@H](CCCNC(=N)N)NC1=O
B9: peptide 87 (FXII618, Leu10 to glycine) (peptide)
peptide: RCFRLPCRQGRCR-NH2
modifications: linker 2-7-12 via TATA; N-terminus assumed
SMILES: CC(C)C[C@@H]1NC(=O)[C@H](CCCNC(=N)N)NC(=O)[C@H](Cc2ccccc2)NC(=O)[C@@H](NC(=O)[C@@H](N)CCCNC(=N)N)CSCCC(=O)N2CN3CN(C2)C(=O)CCSC[C@H](NC(=O)[C@@H]2CCCN2C1=O)C(=O)N[C@@H](CCCNC(=N)N)C(=O)N[C@@H](CCC(N)=O)C(=O)NCC(=O)N[C@@H](CCCNC(=N)N)C(=O)N[C@H](C(=O)N[C@@H](CCCNC(=N)N)C(N)=O)CSCCC3=O
B10: peptide 65 (FXII618, Arg1 to valine) (peptide)
peptide: VCFRLPCRQLRCR-NH2
modifications: linker 2-7-12 via TATA; N-terminus assumed
SMILES: CC(C)C[C@@H]1NC(=O)[C@H](CCC(N)=O)NC(=O)[C@H](CCCNC(=N)N)NC(=O)[C@@H]2CSCCC(=O)N3CN(CN(C3)C(=O)CCSC[C@H](NC(=O)[C@@H](N)C(C)C)C(=O)N[C@@H](Cc3ccccc3)C(=O)N[C@@H](CCCNC(=N)N)C(=O)N[C@@H](CC(C)C)C(=O)N3CCC[C@H]3C(=O)N2)C(=O)CCSC[C@@H](C(=O)N[C@@H](CCCNC(=N)N)C(N)=O)NC(=O)[C@H](CCCNC(=N)N)NC1=O
notes: as for B1

Biological target: T1, human β-FXIIa (HFXIIAB; Molecular Innovations) (human, UniProt P00748 354-362; P00748 373-615, limits assumed)
T1 construct: domain: catalytic domain; Bought; also called human b-FXIIa; human FXIIa
T1 sequence (P00748 373-615 limits assumed, one chain of several): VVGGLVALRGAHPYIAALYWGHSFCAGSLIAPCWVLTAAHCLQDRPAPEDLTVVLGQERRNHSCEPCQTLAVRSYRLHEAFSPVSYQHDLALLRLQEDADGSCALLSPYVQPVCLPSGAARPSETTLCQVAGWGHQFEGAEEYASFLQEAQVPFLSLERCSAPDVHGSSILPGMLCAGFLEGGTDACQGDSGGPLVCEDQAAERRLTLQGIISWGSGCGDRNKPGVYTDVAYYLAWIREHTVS
Assay: protease inhibition assay

Binder	fold reduction of activity vs peptide 2 [fold]	fold reduction of affinity vs peptide 1 [fold]	other results
B1	> 10	–	–
B2	–	–	fold reduction of affinity vs peptide 2: > 50 fold
B3	–	–	fold reduction of affinity vs peptide 2: > 50 fold
B4	54	–	–
B5	> 10	–	–
B6	–	> 5	–
B7	–	> 5	–
B8	–	–	fold reduction of affinity vs FXII618: ~200 fold
B9	–	–	fold reduction of affinity vs FXII618: ~200 fold
B10	–	> 5	–
